Assay results from patent US20160047001A1, “Sept4/ARTS AS A TUMOR SUPPRESSOR IN THE DIAGNOSIS, PROGNOSIS AND TREATMENT OF HEPATIC DISORDERS” (CARMEL-HAIFA UNIVERSITY ECONOMIC CORPORATION LTD., priority 2013, published 2016).
Entries after “also recorded” stand apart in the source; their conditions may differ.

Experiments:
[1] = test system: ARTS mRNA; experiment: RT-PCR of ARTS mRNA after exposure to chromatin-modifying drugs; assay type: cell-based, human; details: for ARTS mRNA level: HCC cell-lines, individual treatment, AZA 10 μM, TSA 1 μM; for ARTS levels: PH5CH non-malignant hepatocyte cell-line
Procedure: Quantitative reverse transcription polymerase chain reactions (qRT-PCR) incorporating SYBR Green (Applied Biosystems) were carried-out using a Realplex qPCR Mastercycler (Eppendorf; Hauppauge, N.Y.). For semi-quantitative PCR, total RNA was extracted from cell-lines using Trizol reagent (Invitrogen, Carlsbad, Calif.) and in turn, was used to synthesize cDNA using random primers, reagents, and protocol provided in the Superscript 1st strand synthesis kit (Invitrogen). Normalized amounts of cDNA served as template in standard PCR using AmpliTaq DNA polymerase (Applied Biosystems). Immunoblotting was performed as previously described in (7). Cell extracts were prepared from tumor and adjacent non-tumor control tissues that were excised from the liver of sacrificed mice, homogenized by Polytron PT 2100 (Brinkman) in Triton X-100 lysis buffer and clarified by centrifugation. Extracts were normalized for protein concentration by Bradford assay (BioRad) prior to immunoblotting procedures. Signal detection was performed with enhanced chemiluminescence kit (Amersham). The following primary antibodies were used: anti-A6 (gift from Dr. V. Factor NCI/NIH), anti-Flag and anti-β-actin (Sigma); anti-XIAP (Becton Dickinson); anti-cIAP-1 (R&D Systems); anti-β-catenin and anti-Survivin (Cell Signaling), anti-cytokeratin-8 (Fitzgerald Indust. Intl., Concord, Mass.). 5-Aza-2′deoxycytidine (AZA), Trichostatin A (TSA), and cycloheximide (CHX) were purchased from Sigma-Alrich. Tumor-necrosis factor-α, the anti-Fas antibody (Jo-2), and the in vitro methylated genomic Hela DNA were obtained from Peprotech, Pharminogen, and New England Biolabs, respectively. To examine the possibility of epigenetic regulation, chromatin-modifying drugs were tested for their ability to influence ARTS expression. Cells were exposed to DNA-methyltransferase and HDAC inhibitors 5′ aza-cytosine (AZA) and trichostatin A (TSA), respectively.

[2] = test system: ARTS; experiment: Western blot of ARTS knockdown by hairpins in NIH3T3 fibroblasts; assay type: cell-based
Procedure: (§1) miR30-designed shRNAs were subcloned into the pLMP (MSCV-based) retroviral vector as previously described (30). Briefly, individual shRNAs were synthesized as 97 base-pair oligos (Sigma Genosys), PCR-amplified, ligated into pLMP following EcoRI/XhoI-digestion.
Immunoblotting was performed as previously described in (7). Cell extracts were prepared from tumor and adjacent non-tumor control tissues that were excised from the liver of sacrificed mice, homogenized by Polytron PT 2100 (Brinkman) in Triton X-100 lysis buffer and clarified by centrifugation. Extracts were normalized for protein concentration by Bradford assay (BioRad) prior to immunoblotting procedures. Signal detection was performed with enhanced chemiluminescence kit (Amersham). The following primary antibodies were used: anti-A6 (gift from Dr. V. Factor NCI/NIH), anti-Flag and anti-β-actin (Sigma); anti-XIAP (Becton Dickinson); anti-cIAP-1 (R&D Systems); anti-β-catenin and anti-Survivin (Cell Signaling), anti-cytokeratin-8 (Fitzgerald Indust. Intl., Concord, Mass.). 5-Aza-2′deoxycytidine (AZA), Trichostatin A (TSA), and cycloheximide (CHX) were purchased from Sigma-Alrich. Tumor-necrosis factor-α, the anti-Fas antibody (Jo-2), and the in vitro methylated genomic Hela DNA were obtained from Peprotech, Pharminogen, and New England Biolabs, respectively.

[3] = test system: Sept4/H5-Flag; experiment: Western blot (anti-Flag) of Sept4/H5-Flag knockdown in NIH3T3 fibroblasts; assay type: cell-based; details: NIH3T3 fibroblasts stably expressing Sept4/H5-Flag; retroviral shRNA; anti-Flag immunoblot
Procedure: FIG. 5I. A pan-Sept4- and Sept4/H5-specific short-hairpins promote efficient knowndown. […] NIH3T3 fibroblasts stably expressing Flag-epitope tagged Sept4/H5 (Sept4/H5-Flag) were transduced with retroviruses harboring the indicated shRNAs, a non-silencing control, or left un-infected Immunoblotting was performed with anti-Flag antibody to detect Sept4/H5-Flag expression (red arrow).
as §1
Immunoblotting was performed as previously described in (7). Cell extracts were prepared from tumor and adjacent non-tumor control tissues that were excised from the liver of sacrificed mice, homogenized by Polytron PT 2100 (Brinkman) in Triton X-100 lysis buffer and clarified by centrifugation. Extracts were normalized for protein concentration by Bradford assay (BioRad) prior to immunoblotting procedures. Signal detection was performed with enhanced chemiluminescence kit (Amersham). […]

[4] = test system: PHM-1 hepatoblasts; experiment: Growth of PHM-1 hepatoblasts after sub-cutaneous transplantation into host mice; assay type: in vivo; details: PHM-1 cells carrying the hairpin, sub-cutaneous injection into host mice
Excerpt: FIG. 5D. Growth of PHM-1 hepatoblasts following their sub-cutaneous transplantation into host mice. Values are the mean±standard deviation of four independent experiments. P-values: *P=0.04, **P=0.03, and ***P=0.01.
Details on isolation, culture, retrovirus-mediated gene transfer, and sub-cutaneous transplantation of hepatoblasts can be found in (30). Cell viability was monitored by propidium iodide (PI) nuclear staining and flow cytometric analysis.

Molecule | ARTS mRNA level [1] | ARTS levels [1] | ARTS levels (knockdown) [2] | further results
CC(/C=C/C(=O)NO)=C\[C@@H](C)C(=O)c1ccc(N(C)C)cc1 [TSA, Trichostatin A] | upregulation of ARTS mRNA; also recorded: induced ARTS mRNA to levels comparable to those observed in normal hepatocytes | little appreciable effect |  | 
Nc1ncn([C@H]2C[C@H](O)[C@@H](CO)O2)c(=O)n1 [AZA, 5-Aza-2′deoxycytidine] | upregulation of ARTS mRNA; also recorded: induced ARTS mRNA to levels comparable to those observed in normal hepatocytes | little appreciable effect |  | 
sh-ARTS-1: miR30-designed shRNA specifically targeting ARTS, in pLMP retroviral vector (nucleic acid) TGCTGTTGACAGTGAGCGCAAGGGAACAGGCCGAGTAGCATAGTGAAGCCACAGATGTATGCTACTCGGCCTGTTCCCTTATGCCTACTGCCTCGGA |  |  | capable of reducing ARTS levels | 
sh-ARTS-2: miR30-designed shRNA specifically targeting ARTS, in pLMP retroviral vector (nucleic acid) TGCTGTTGACAGTGAGCGAAACAGGCCGAGTAGCACCACATAGTGAAGCCACAGATGTATGTGGTGCTACTCGGCCTGTTCTGCCTACTGCCTCGGA |  |  | capable of reducing ARTS levels | 
sh-ARTS-3: miR30-designed shRNA specifically targeting ARTS, in pLMP retroviral vector (nucleic acid) TGCTGTTGACAGTGAGCGACGGGTGGTCACTGATTCCTGTTAGTGAAGCCACAGATGTAACAGGAATCAGTGACCACCCGCTGCCTACTGCCTCGGA |  |  | capable of reducing ARTS levels | 
sh-panSept4: miR30-designed shRNA targeting all Sept4-isoforms, including ARTS (nucleic acid) TGCTGTTGACAGTGAGCGCAAGCACGCAGTGGATATAGAATAGTGAAGCCACAGATGTATTCTATATCCACTGCGTGCTTATGCCTACTGCCTCGGA |  |  | capable of reducing ARTS levels | Sept4/H5 knockdown [3]: highly effective Sept4/H45 knockdown; tumor growth [4]: promoted tumor growth
